Experimental data as given in article PMC7060199, “DJ-1 suppresses ferroptosis through preserving the activity of S-adenosyl homocysteine hydrolase” (Nature Communications, 2020).

Key:
[1] = molecular target: the molecule itself; assay: cross-linking; cells incubated with 2 mM DSS for 30 min at 25 C, quenched with 1 M Tris-HCl pH 7.4; western blot; control and DJ-1 KD
[2] = molecular target: the molecule itself; assay: not stated; HEK293T cells with DJ-1 overexpression (Supplementary Fig. 6j)

| Protein | stoichiometry N [1] | stoichiometry N [2] |
| --- | --- | --- |
| S-adenosyl homocysteine hydrolase (enzyme, human (endogenous in H1299), UniProt P23526 1-432, looked up, S-adenosyl homocysteine hydrolase (SAHH) of H1299 cells; also called SAHH; source: H1299 cell lysate (control KD and DJ-1 KD)) MSDKLPYKVADIGLAAWGRKALDIAENEMPGLMRMRERYSASKPLKGARIAGCLHMTVETAVLIETLVTLGAEVQWSSCNIFSTQDHAAAAIAKAGIPVYAWKGETDEEYLWCIEQTLYFKDGPLNMILDDGGDLTNLIHTKYPQLLPGIRGISEETTTGVHNLYKMMANGILKVPAINVNDSVTKSKFDNLYGCRESLIDGIKRATDVMIAGKVAVVAGYGDVGKGCAQALRGFGARVIITEIDPINALQAAMEGYEVTTMDEACQEGNIFVTTTGCIDIILGRHFEQMKDDAIVCNIGHFDVEIDVKWLNENAVEKVNIKPQVDRYRLKNGRRIILLAEGRLVNLGCAMGHPSFVMSNSFTNQVMAQIELWTHPDKYPVGVHFLPKKLDEAVAEAHLGKLNVKLTKLTEKQAQYLGMSCDGPFKPDHYRY | 4 | – |
| SAHH in HEK293T cells (enzyme, UniProt P23526 1-432, looked up, S-adenosyl homocysteine hydrolase (SAHH) in HEK293T cells with DJ-1 overexpression; source: HEK293T cells) MSDKLPYKVADIGLAAWGRKALDIAENEMPGLMRMRERYSASKPLKGARIAGCLHMTVETAVLIETLVTLGAEVQWSSCNIFSTQDHAAAAIAKAGIPVYAWKGETDEEYLWCIEQTLYFKDGPLNMILDDGGDLTNLIHTKYPQLLPGIRGISEETTTGVHNLYKMMANGILKVPAINVNDSVTKSKFDNLYGCRESLIDGIKRATDVMIAGKVAVVAGYGDVGKGCAQALRGFGARVIITEIDPINALQAAMEGYEVTTMDEACQEGNIFVTTTGCIDIILGRHFEQMKDDAIVCNIGHFDVEIDVKWLNENAVEKVNIKPQVDRYRLKNGRRIILLAEGRLVNLGCAMGHPSFVMSNSFTNQVMAQIELWTHPDKYPVGVHFLPKKLDEAVAEAHLGKLNVKLTKLTEKQAQYLGMSCDGPFKPDHYRY | – | 4 |
